How the values were obtained:
[1] = target: rat α6/α3β2β3 nAChR (rat), P12390; assay: cell-based or functional assay
[2] = target: rat α6/α3β4 nAChR (rat), P12392; assay: cell-based or functional assay

Binder	IC50 (half-blocking dose) of ACh-gated current, Xenopus oocytes [1] [nM]	Ratio (IC50 of TxIB(G) / IC50 of TxIB) [1]	IC50 (half-blocking dose) of ACh-gated current, Xenopus oocytes [2] [nM]
GCCSDPPCRNKHPDLCG (modifications not checked) [α-conotoxin TxIB/Txd4(G)]	247	8.7	> 10000
GCCSDPPCRNKHPDLC (modifications not checked) [α-conotoxin TxIB/Txd4]	28.4	1	> 10000

Reference: US20150299276A1
